Laboratory results from the supplement of paper PMC12042874.
± gives the uncertainty stated by the source.

Experiment: amyloid nucleation score (Sup35N fusion, yeast selection) (log enrichment); library NNK2; higher = more nucleation; inactive = no reads after selection
Outline: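 Using DiMSum, nucleation scores were taken as the log enrichment of output over input reads, centred on the mode score of non-aggregating sequences. The input and output reads came from Illumina sequencing of plasmid inserts, with sequences under 100 input reads excluded. The yeast were psi-negative, expressed Sup35N fused to peptides of 20 random codons, were induced with 100 μM copper sulfate for 24 hours, and were grown 7 days at 30°C on medium lacking adenine and uracil.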

Substance	amyloid nucleation score
FIPEERDIWGYAPGNCIFFR	-1.77 ± 0.54
LPLLSWDPRNTSP	-0.218 ± 0.53
WCHTGKRINFPFICFLWFWC	inactive
MTTYAVLGVPI	-0.421 ± 0.28
SWLYIQFFNLVLKTIVGLGV	0.026 ± 1.1
TGYFTARNSAEVKRHVNLKR	0.169 ± 0.8
VIKFDQISCNSFPNSLL	-0.479 ± 0.55
SRYGRTEGRFFVRRRGMHHG	0.21 ± 0.32
FDLAMGVSLVKRLRLVLCLS	-1.12 ± 0.64
ILIIRLKFLVIVAITSTGSD	inactive
SEYVCSCYFSGLLNKLRLVE	0.356 ± 0.43
FTLDNMSLQTRTLMRYE	-0.863 ± 0.49
SKVNVVVDNMG	-0.125 ± 0.39
MFKSCQEGIKHWNNPT	3.59 ± 0.051
SGCCR	-0.925 ± 1
GMICKWAWVSTGGKGVKCRE	0.272 ± 0.43
PAWATTLLDTSTARLYNMLA	0.157 ± 0.18
DHPYTRKFI	-0.311 ± 0.79
LHKISIGKCSRCSCRNTFGE	-0.171 ± 1
ASITIHSFKMRTYTRAITRE	3.92 ± 0.064
FKVRIVGPLTAGMVE	-1.01 ± 0.34
AMWESLP	1.41 ± 0.25

Substance	amyloid nucleation score
YWVLQNYHLYCLYKSKSRNW	-0.403 ± 0.4
SYKMGEFTTFSLSRICK	1.12 ± 0.27
WSLYLVVLAQ	0.294 ± 0.51
MKLYSISELLFKFLLHSLCA	inactive
PFGKPVYLIFPPGMLVIFRA	-0.603 ± 1.1
PVGVDLWCGSQSNSLNAFLH	inactive
YWFFCGRWK	4.7 ± 0.11
VWQFRCGERMTKCLLWGDYG	0.072 ± 0.31
SVINYVFMGDHPYHNVIFRF	7.576 ± 0.051
LLPSHISASNHIWWLKTS	0.307 ± 0.31
FSVRGRWAHLWMK	0.443 ± 0.42
NNFSVSFLGVDVF	-0.199 ± 0.74
CCDVRS	0.558 ± 0.51
SRFRIMSNLGVKWGPCRVYL	0.164 ± 0.8
YLLTLFGPRMTD	-1.45 ± 0.76
MRYYWMWHKVVM	0.069 ± 0.29
PWAMDQVTLSMVLPFMWPRL	0.456 ± 0.39
FFHYVNAQVRGWLCTVYIIR	-0.574 ± 0.55
ATIGSLWRNYNERLFST	4.06 ± 0.089
SWINLQVS	-1.5 ± 0.75
PIRWVGHNKGFQGL	-1.22 ± 0.75
YVIVTDFYYNMVRVVFVRMA	0.228 ± 1

Substance	amyloid nucleation score
SYVVGRFNLSRCHLSCGLVS	inactive
TCGYGLSWLSGSPSMIMWMW	0.009 ± 0.63
NARICDTLVLKLLTVLLENG	3.44 ± 0.12
VSWLDYHVSPSRCRGTLNPC	0.463 ± 0.38
GCTGGRIK	-0.088 ± 0.49
CSINLRAYPVLSRGATVACK	0.755 ± 0.55
YTTRSVMVSCGYCR	-0.29 ± 0.27
TVGHDQASYMGFGSFYTSVF	-0.538 ± 0.76
WTDTGMTYLFCNLFWLACGI	5.634 ± 0.03
FDCRNIREMHTRVYNSCTHP	-0.266 ± 1
RFDINHCIKRCRFGRLVAEI	3.12 ± 0.1
CNVHWGRL	0.089 ± 0.8
QCFSLGGWVCFVIDVC	9.476 ± 0.079
GYVGLGFNLTHAFGFGSLAG	0.656 ± 0.23
LNGGKLWNHRDLWDRTGQVY	-0.266 ± 1
IEVFDIWCPAGFVMEALRFV	4.28 ± 0.099
IRFDFSC	1.51 ± 0.17
LSLLEGKVWLRWY	1.2 ± 0.61
PCERPFERFLVLNRFSDSST	0.183 ± 0.62
MNWHTSYCLFDVRAKVAGNV	-0.393 ± 1.1
MFKDNLLIVLFMLLMGLMRW	3.45 ± 0.069
KDGKALT	inactive

Substance	amyloid nucleation score
LYKYLCAIIKNVDKVVPLRM	-0.904 ± 0.49
LWQLPIILWFLRNCVMRNPA	-0.723 ± 0.79
MYMARCKASTVSDYQNS	-0.393 ± 0.55
SGNIAMFVPSVRWSVRDYCC	1.06 ± 0.14
HSRLLCWANVDLERFSEWSG	1.46 ± 0.23
RFSCTKFRGKGLFWMLKCVL	-0.835 ± 0.27
FFGYAGCNRPVNLSYGGRFN	-0.952 ± 0.32
VGALCGYAVVSWYSWSLSVL	1.83 ± 0.11
DAFWLWSFIWACVLCFTKHR	-0.549 ± 0.45
KAWFLESSKYSYRSWFR	-0.641 ± 0.38
WLAICVARWSETYCMFVWTT	-0.441 ± 1.1
FMAWTDSLIYKHAICAATL	-0.031 ± 0.39
SSTEMSFYMIHKIFAVY	inactive
DLHWA	0.595 ± 0.28
PFRGYFGVLSYAVFGEAGPV	4.4 ± 0.067
WDGLASLQVSCVAMLLVQSF	-0.546 ± 0.39
ATPLSGMVFNWSFEWQGCLL	0.949 ± 0.18
HCIMYSTLRHRVWSGRLDGS	3.86 ± 0.089
VDFVIGLLKPTVVKNHGCWS	-0.301 ± 0.65
